Experiment: soluble on expression in E. coli; label from the status in PepcDB or PDB records

Sequence | soluble on expression in E. coli
MPALPPVYTPSGAPSSVHAPPAVPPVPVPTQPLRSEYQTSNDACIKRLEELNIAPAAKLYPTPTEPGKCGVEAEIQTNVFGIEMHQDSLFYQYSVNITTELKNGKEVTFTKKGKDDFVVTERHDKCCAILFRALGDYEEFFKTSDSCLIYDGQSILFSNVDLFQGFREGAVKTKYMQLDGGEMDHKDLKSLPCIKLEVFPTKNPAVKFTREAVARRATDSNLDSVSLAYQQILELALTQPCLRNTARYVVFDHGKMFFIDPLGEGFEKCDVVDVGDGKQVVPGLKKTINFIEGPYGRGRSNPSVVIDGMKVAFHKNQPILDKLKEITTQPVEHGLKGLEKDRCAAVIKGLDCYSTYGGRERHHKIEGIHHEGARNARFELNDGGSCTVAQYFEDVYNITLRYPDTNLIVSKERGNINFYPMELLKISSHQRVQIPQLTSAQSQKTTKESAVLPDVRQRLILTGKNAAQISSDNEVLGKMGVSVCEDPLMVKGRSIPAVKLANAEIGANPINVKDNKWRANRFTRPATAPNVWAMYVVGTASTRITLDTLKKFADEFAAMCKSKGVNMPAPADISLIHMDAIESRLYDATKANCTFVFIITDDSITTLHQRYKMIEKDTKMIVQDMKLSKALSVINAGKRLTLENVINKTNVKLGGSNYVFVDAKKQLDSHLIIGVGISAPPAGTKYAMENKGVLNPNVIGYAYNAQHNQEFSGDFVLNSASQDTLAPIEDIVMHSLNEYQKFHDGGLPRRVIVYRTGTSEGNHGSIMAYEIPLARAAMRDFSPDIQLVYIVVSKDHSFRFFKPDLASLASRPQATSSTASRHSAMPAAPKAWDLNIAPGILVDSIVTNPACKQFFLNSHITLQGTAKTPLYTVLADDAKVSMTALEDITYKLCHLHQIVGLPTSLPTPLYVANEYAKRGRNLWNEAVALNNVPTVSGPEADRLKELTKSICYKASGDLTGRRVNA | not soluble
IPGKDVAVTAGRVVFQNHLIELIQYEAQTKTVYKEPILILPAWIMKYYILDLSPHNSLVKWLVKQGHTVFIISWRNPDKEDCDLGMDDYYRLGAMAAIDMVSTILPETKINLMGYCLGGTLAMITASMMGRYEDERLNCLTLLAAQGDFSEAGELMLFVNESQVDFLKSMMWEQGYLDTKQMAGSFQMLRAYDLIWSKMVQDYMHGMRRGMIDLTAWNADATRMPYKMHSEYLEKLFLNNDFAEGRYMVEGKSVAAENIQCPIFAVSTKKDHVAPWQSVYKIHLMTEENVTFVLTGGGHN | not soluble
MSLKILICSDTHLGAGEKSHCLKDDCYLAFEEILQQANQEDVDLILHSGDFFDDQNPSKYCLTKTMELMRKYLMGKPKNSFDVAYTYEHNQEDNGFSMNQGIKYPMYVIHGNHDIPSGIEHVAGLDILQTAGLVNFIGKAEDISEIDNKTDQTILHLSPILLQKGTTRIALYGMSYKKNEEMNRLWASSQVQIDEPDGDVFKILLIHQDRILRNTLTTFPEELLKDRFNLIVFGHEHSSQVEEGTDVQIIQTGSSFPLSICEFEKAEKFIGLAHINGMKINMNKIALRNVREVFYEVVQMSQMIEGSANLEMVEHYIREEVQNFFDHVNTHSKTMLPLARIIIEYKSLGCIPNLRKMAFEFEKNIVNKGDCIKLKKKIQKREGHHHHHH | soluble
MSLLDIIFPPNNNDDDFYGQHFSLIDSIIVKVAQDSNLSQSLRVYQYLYSWRLFGCMVAVVNNNKTLELGDKRGAIEALYEFITRFRIENPTGDVERKVKLKILEIYMIILNLLKSFENNQDQWFLKTNSYKETTTTRRREGHHHHHH | soluble
MGSDKIHHHHHHMVLNINSFYKNCRGEFMRAVFIYHKNNQRMEKFYKNLLNEPDFCRICDDCYNCRGNWTFKNNVKNIVIEEVYEEFVDNPYDYLPELPEGDICIAQLHEDLLYELPLLLKEKGYKALIVPSETPHDLSLALRRDLKRVCSNYNIEFENPKPFCSLEKKEGNEYINKFIDYFKIGKPELEIEVENGLIKDVKVKISAPCGETYYIAKRLKGKAIDDLKEEIANAHHNYPCLASMEMDKELGDTILHKAGYIAFEVVEKALKK | not soluble
GHMDVGERSSDQGTTVLTEAQRIDWMRLIRAENVGPRTFRSLINHFGSARAALERLPELARRGGAARAGRIPSEDEARREIEAGRRIGVELVAPGETGYPTRLATIDDAPPLLGVHALPEALAVMARPMIAIVGSRNASGAGLKFAGQLAADLGAAGFVVISGLARGIDQAAHRASLSSGTVAVLAGGHDKIYPAEHEDLLLDIIQTRGAAISEMPLGHVPRGKDFPRRNRLISGASVGVAVIEAAYRSGSLITARRAADQGREVFAVPGSPLDPRAAGTNDLIKQGATLITSASDIVEAVASILERPIELPGREPEHAPPEGEPDTGDRTRILALLGPSPVGIDDLIRLSGISPAVVRTILLELELAGRLERHGGSLVSLS | soluble
YDFIDNPGFDESHSLTEMREAFLSFFEDRDHERIDPYPVAANRWRDDVLLTQASIYDFQPLVTSGTTPPPANPLCISQPCIRMQDIDNVGKTGRHTMAFEMMAHHAFNAREDIEDPEQYAYEGEVYWKNETVQYCDELFEEMGANLDEIVYIEDPWVGGGNAGPAIEVIYRGAELATLVFMSMEQDSDGEYEMKDGNRYSPMDTYIVDTGYGLERWTWMSQGTPTVYEAVYPDMIAFLKDNAGIELTDEEERIVHEAAKLAGRMDI | not soluble
MPSLSKEAALVHDALVARGLETPLRPPMDELDNETRKSLIAGHMTEIMQLLNLDLSDDSLMETPHRIAKMYVDEIFAGLDYANFPKITLIENKMKVDEMVTVRDITLTSTCEHHFVTIDGKATVAYIPKDSVIGLSKINRIVQFFAQRPQVQERLTQQILTALQTLLGTNNVAVSIDAVHYCVKARGIRDATSATTTTSLGGLFKSSQNTRQEFLRAVRHHP | not soluble
MSLNDKVTAVRDVWRYEQGEISKVEDRMVTEFPLTVILNGSEFVTLVCTPEHIEELVIGFLASEGVIRFQKEIKRFTIDESLGFVYVDLVHPETLDQKDYTKRVIGSCCGKGRHFYFQQDVKTAKTAVSQIKISPEACLALMKDMQQGSGTFQDTGGVHNAALCDTEKLLLMRTDIGRHNALDKLYGHCLLNGMSVRDKLIVFSGRISSEVLLKAAKIGVSIVISKSAPTELAIQMAEELNITAIGFVRNGSFNVYTHPERIREEGHHHHHH | soluble
MAELWEIVSFLDEYLKISEYPDKSSNGLQVEGKEEVNTIAFAVDACLDTIVKARAFNADMLIVHHGLIWGGVKYVKGLFAKRVKELLKSNMNLYAAHLPLDAHPEVGNNAQLLKLLGLEPKEKFGEYHGVMIGYIGEFEEEKPLPLIAQMLAEKLPVDYVKSYEFGVQEIKRVGVVSGGGGFAVEEASEKGVDLFITGEFTHEDYRAAEDLRLSVIAAGHYATETLGVKALMPILREKFGVKTIFIDSPTGLLEHHHHHH | soluble
MSLKNQLGQLALEQAKTFGGKLEVQPKVDIKTKHDLSIAYTPGVASVSSAIAKDKTLAYDLTTKKNTVAVISDGTAVLGLGDIGPEAAMPVMEGKAALFKAFAGVDAIPIVLDTKDTEEIISIVKALAPTFGGINLEDISAPRCFEIEQRLIKECHIPVFHDDQHGTAIVVLAAIFNSLKLLKKSLDEVSIVVNGGGSAGLSITRKLLAAGATKVTVVDKFGIINEQEAAQLAPHHLDIAKVTNREFKSGTLEDALEGADIFIGVSAPGVLKAEWISKMAARPVIFAMANPIPEIYPDEALEAGAYIVGTGRSDFPNQINNVLAFPGIFRGALDARAKTITVEMQIAAAKGIASLVPDDALSTTNIIPDAFKEGVAEIVAKSVRSVVLKSEGHHHHHH | soluble
MGSDKIHHHHHHDFLDRHPQGQFTEDDNPGALAEGKVFNIYTMMRNYNITAGIPAFAIEYFRSEDSEKGSTASDGADQAAMYDDFQYNASNGLIKAYWSQNYAVIYQCNDVIETIEKGNLTEENDLRNKGEALFFRAYCYFNLVRAFGEVPLVTFKVNDASEANVPKTTAEEIYKQIDSDLTQAEGLLPRQWQSAYLGRLTWGSARALHARTYMMRNDWQNMYTAATDVMNSGQYNLNTPYDVIFTDEGENSSESVFELQCASTAALPASDKIGSQFCEVQGVRGSGQWDLGWGWHMGTELMGEAFEPGDPRKDATLLYFRRSDTDPITPENTNKPYGESPVSQADGTYFNKKAYTNPALREEFTRHGFWVNIRIIRYGDVVLMAAESANELGKTGEASNYLEMVRARARGNNPDILPKVTSLDQTVLRDAIRHERRVELGLESGRFYDLVRWGIASQVLHAAGKTGYQPKNALLPLPQDEIDKSKGVLVQNPDY | not soluble
MIIMLSEYLEEFKEYLERFKNIDINFSDVLKMSKKFIIWRLKQIFGDSSTIFTNISSEITIFDKIFQMIDYDIDGEVEKRLPKDESRFMIGVRREKEIEIKKEIITNLLDFLLIILLSHTPYFNAFVRKYAEIKKIKVIKKLPNKISVWEFIKIASRSRINDLHLERLDLENGFVDITKIKEIFAKEIIRVELMKLGENIKKRKLPDDSVVKELLNEISDYLKDKVKYEQISGIKALNYKGNIPLEWHPPCIRGILNDILSGGSPSHYARRSFVVYWFCAKFNPNLRPLDKNGNLVNVSATDIASEEEIERFIDELIEMLFKNVEDFDEKKTRYYIMHNIGYKVGHGRLTHCEYCKNWQDDGGKGLSYYCKPDELCKKKFIIHPLDYLCYNINKHLKKERFKKIKKEDKNGDNKLEHHHHHH | soluble
MGSDKIHHHHHHMSILEVKNLSHGFGDRAIFEDVSFRLLKGEHIGLVGANGEGKSTFMSIVTGKMLPDEGKVEWSKYVTAGYLDQHSVLAERQSVRDVLRTAFDELFKAEARINDLYMKMAEDGADVDALMEEVGELQDRLESRDFYTLDAKIDEVARALGVMDFGMDTDVTSLSGGQRTKVLLAKLLLEKPDILLLDEPTNYLDAEHIDWLKRYLQNYENAFVLISHDIPFLNDVINIVYHVENQQLTRYSGDYYQFQEVYAMKKSQLEAAYERQQKEIADLKDFVARNKARVATRNMAMSRQKKLDKMDIIELQSEKPKPSFDFKPARTPGRFIFQAKNLQIGYDRPLTKPLNLTFERNQKVAIIGANGIGKTTLLKSLLGIISPIAGEVERGDYLELGYFEQEVEGGNRQTPLEAVWNAFPALNQAEVRAALARCGLTTKHIESQIQVLSGGEQAKVRFCLLMNRENNVLVLDEPTNHLDVDAKDELKRALKEYRGSILMVCHEPDFYEGWIDQIWDFNNLT | not soluble
MSKPYLAGLLLISPWALAASGSWSSESFGGTMTRGQQSVKSKPLQSPSPLPPGARATTVHWKIKTDGLTPSGLRIRLCNAARCVRLAGWAGEMPLPAGIAPEGPFRFEYHASEAGTLRSPVTILSNQLTVSYHSSH | not soluble
LKKKVGIISLGCPKNLVDSEIMLGLLKKNDFEITSDSEEANVIIVNTCGFIESAKEESINTILEMANYKNKNCEMLIVAGCLAQRYKDEIIKEMPEVDAVVGVSGYDEIAKVIEEFYSKKNDKNDKEKAVFHKDTLSVEYLNNERLLSTNSGYAYLKISEGCDNRCTYCAIPYIRGPYRSRKMEDIISEAEFLAGKGVKEVILVAQDVTVYGKDLYGQKKLVELVREVSGIEGIEWIRLLYTYPEEIDEELIKEIANNEKVVKYLDIPIQHASDKILKLMGRRSTSEGIRNILDRLRAEVPDIVLRTSLIVGFPGEDEKDFKILYDFVRKYEFDRLGVFTYSREEGTPAYDLKPQIKKSVKESRRNDIMQLQKEIVQRKNESRLEKVYKTLVEGVSEDGIFYYGRTYAEAPDIDGSVYFTSAEPLKFGEFVNVKVLNIDDYDLIGEVINESSK | soluble
